Test results published in patent publication US20080038273A1 (INSTITUT NATIONAL DE LA SANTE ET DE LA RECHERCHE MEDICALE …, published 2008).

Molecular target: T1, Recombinant human CD28 (human, UniProt P10747 19-152, limits assumed)
T1 construct: also called CD28 molecule
Assay: BIACORE, recombinant human CD28 immobilized
Text: Recombinant human CD28 was immobilized on the biosensor (BIACORE) detector.

Ka: 2.86e+09 M⁻¹
Kd: 349 pM
B1: CD28.3 scFv/α1-antitrypsin fusion protein (other)
chain: DYKDIVKLQQSGAELVKPGASVRLSCKASGYTFTEYIIHWIKLRSGQGLEWIGWFYPGSNDIQYNAKFKGKATLTADKSSSTVYMELTGLTSEDSAVYFCARRDDFSGYDALPYWGQGTMVTVSSGGGGSGGGGSGGGGSDIQMTQSPASLSVSVGETVTITCRTNENIYSNLAWYQQKQGKSPQLLIYAATHLVEGVPSRFSGSGSGTQYSLKITSLQSEDFGNYYCQHFWGTPCTFGGGTKLEIKRTVAAPSEFNKITPNLAEFAFSLYRQLAHQSNSTNIFFSPVSIATAFAMLSLGTKADTHDEILEGLNFNLTEIPEAQIHEGFQELLRTLNQPDSQLQLTTGNGLFLSEGLKLVDKFLEDVKKLYHSEAFTVNFGDTEEAKKQINDYVEKGTQGKIVDLVKELDRDTVFALVNYIFFKGKWERPFEVKDTEEEDFHVDEVTTVKVPMMKRLGMFNIQHCKKLSSWVLLMKYLGNATAIFFLPDEGKLQHLENELTHDIITKFLENEDRRSASLHLPKLSITGTYDLKSVLGQLGITKVFSNGADLSGVTEEAPLKLSKAVHKAVLTIDEKGTEAAGAMFLEAIPMSIPPEVKFNKPFVFLMIEQNTKSPLFMGKVVNPTQKLEGEFEQKLISEEDLNHHHHH
notes: The pIG6 product would also carry DYKD at the N-terminus; not shown: c-myc marker and polyhistidine marker of the vector (pIG6 or pSECTagB)
